These results are taken from patent US20140127759A1 (TORAY INDUSTRIES, published 2014).

Changes are numbered by the printed parent chain. Numbers in names are those of the source.

In data set [1] the target is R170A/R220A/Y227F/E449R mutant β-glucosidase (Pyrococcus furiosus). Put plainly: gel filtration (Superdex 200), oligomeric state. Background: In gel filtration, larger molecules generally elute earlier.
Data set [2] concerns the molecule itself. Nature of the data set: gel filtration (Superdex 200), self-association. How it is done:
(§1) The molecular weights of the parent glucosidase and the mutants were determined by gel filtration using HiLood 26/60 Suuperdex 200 as the column, a 50 mM tris-hydrochloride (pH 8) and 150 mM sodium chloride as the buffer. The enzymes prepared in Example 2, Reference Example 1, and Example 9 were each added to the column and eluted with the buffer at a flow rate of 2 mL/min. The enzyme was detected by measuring absorbance at 280 nm. Ovoalbumin (44 kDa), conalbumin (75 kDa), aldolase (158 kDa), and ferritin (440 kDa) were used as molecular weight markers, and a calibration curve was drawn based on the elution time of each enzyme component. The molecular weights measured by gel filtration (observed molecular weights: kDa) and molecular weights estimated from the amino acid primary structures (estimated molecular weights: kDa) are summarized in Table 8.

Data set [3] concerns the molecule itself. Nature of the data set: gel filtration (Superdex 200), oligomeric state. The procedure: as §1
Data set [4] concerns the molecule itself. Put plainly: blue-native PAGE, self-association. How it is done:
Whether the parent β-glucosidase and our β-glucosidases, R170A mutant, R170A/R220A mutant, and R170A/R220A/Y227F mutant, form stable tetramers or not was investigated by blue-native PAGE.
In the blue-native PAGE, 3-12% Native-PAGE Bis-Tris Gel (Invitrogen Corporation) was used. Electrophoresis samples were prepared by dissolving 1 μg of each of the parent β-glucosidase, R170A mutant, R170A/R220A mutant, and R170A/R220A/Y227F mutant in a sample buffer (50 mM imidazole (pH 7.0), 50 mM NaCl, 5 mM 6-aminohexanoic acid, 0.5% Coomassie G250, and 0.5% DDM). NativeMark protein standard (Invitrogen Corporation) was used as molecular weight markers. In the electrophoresis, 50 mM Tricine, 7.5 mM imidazole (pH 7.0), and Coomassie G250 were added to […], whereas 25 mM imidazole (pH 7.0) was added to the cathode side. The electrophoresis was performed at a constant voltage of 150 V for 100 minutes. After fixation of bands, G-250 was decolorized.

B1: R170A/R220A/Y227F/E449R mutant β-glucosidase (enzyme)
chain: AKFPKNFMFGYSWSGFQFEMGLPGSEVESDWWVWVHDKENIASGLVSGDLPENGPAYWHLYKQDHDIAEKLGMDCIRGGIEWARIFPKPTFDVKVDVEKDEEGNIISVDVPESTIKELEKIANMEALEHYRKIYSDWKERGKTFILNLYHWPLPLWIHDPIAVRKLGPDAAPAGWLDEKTVVEFVKFAAFVAYHLDDLVDMWSTMNEPNVVYNQGYINLASGFPPGFLSFEAAEKAKFNLIQAHIGAYDAIKEYSEKSVGVIYAFAWHDPLAEEYKDEVEEIRKKDYEFVTILHSKGKLDWIGVNYYSRLVYGAKDGHLVPLPGYGFMSERGGFAKSGRPASDFGWEMYPEGLENLLKYLNNAYELPMIITENGMADAADRYRPHYLVSHLKAVYNAMKEGADVRGYLHWSLTDNYEWAQGFRMRFGLVYVDFETKKRYLRPSALVFRRIATQKEIPEELAHLADLKFVTRK
For B1, the Observed molecular weight (kDa) in data set [1] is 92 kDa.

B2: R170A/R220A/Y227F/R448E mutant β-glucosidase (enzyme)
chain: B1 chain with R448E, R449E
notes: start methionine not included; Estimated to be monomeric
As for B2, in data set [2], the binding result is given as “no binding”. In data set [3], the “Observed molecular weight (kDa)” value worked out at 70 kDa.

B3: R170A/R220A/Y227F/R448G mutant β-glucosidase (enzyme)
chain: B1 chain with R448G, R449E
notes: as for B2
Take B3: in data set [2], the binding result was “no binding”. Further, the “Observed molecular weight (kDa)” value in data set [3] is 63 kDa.

B4: R170A/R220A/Y227F mutant β-glucosidase (enzyme)
chain: B1 chain with R449E
notes: start methionine not included; Homodimer in crystal and by gel filtration; also called mutant (R170A/R220A/Y227F)
With B4, the “Observed molecular weight (kDa)” value in data set [3] came to 129 kDa.

B5: R170A/R220A mutant β-glucosidase (enzyme)
chain: B1 chain with F227Y, R449E
notes: start methionine not included; also called A170A/R220A mutant [sic]
Take B5: in data set [4], the binding result is reported as “binds”.

B6: parent β-glucosidase (Pyrococcus furiosus) (enzyme)
chain: B1 chain with A170R, A220R, F227Y, R449E
notes: Recombinant, expressed in E. coli; Homotetramer in crystal and in solution; also called wild-type; parent glucosidase
For the molecule B6, the “Observed molecular weight (kDa)” value in data set [3] is 237 kDa.

B7: R170A mutant β-glucosidase (enzyme)
chain: B1 chain with A220R, F227Y, R449E
notes: start methionine not included in the entry
For B7, the binding result in data set [4] is listed as “binds”.

B8: R170A/R220A/Y227F/E459G mutant β-glucosidase (enzyme)
chain: B1 chain with R449E, E459G
notes: as for B2
For B8, the binding result in data set [2] was “no binding”. For the same molecule, the “Observed molecular weight (kDa)” value in data set [3] stood at 50 kDa.
